Test results published in article PMC11905881, “Incorporation of polymerizable linkers into aptamers for high-affinity nanoscale molecularly imprinted polymer hybrids: analysis of positional selectivity†”.

Key:
trypsin = trypsin (UniProt P00760); assay: SPR; conditions: embedded in imprinted polymer nanoparticle, SPR: PBST (10 mM phosphate buffered saline, pH 7.4, 0.01% Tween 20), 25 °C, nanoparticles immobilized on carboxymethyl dextran Au chips, protein 4-64 nM, n = 3
lysozyme = lysozyme (UniProt P00698 19-147); assay: SPR; lysozyme-imprinted polymer hybrid; SPR: PBST (10 mM phosphate buffered saline, pH 7.4, 0.01% Tween 20), 25 °C; nanoparticles immobilized on carboxymethyl dextran Au chips, protein 4-64 nM; n = 3; conditions: protein: commercial
Chain of lysozyme (P00698 19-147): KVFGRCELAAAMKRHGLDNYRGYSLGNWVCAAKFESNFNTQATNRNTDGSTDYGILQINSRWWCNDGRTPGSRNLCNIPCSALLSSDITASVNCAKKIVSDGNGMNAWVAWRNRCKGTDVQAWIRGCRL

Chain of trypsin (P00760 24-246): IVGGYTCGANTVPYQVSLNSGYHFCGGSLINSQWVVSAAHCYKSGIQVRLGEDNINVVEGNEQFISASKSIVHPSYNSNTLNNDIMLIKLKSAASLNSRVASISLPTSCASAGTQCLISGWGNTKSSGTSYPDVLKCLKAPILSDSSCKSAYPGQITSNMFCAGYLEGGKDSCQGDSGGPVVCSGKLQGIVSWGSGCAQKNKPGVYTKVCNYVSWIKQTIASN

Question: With “ATCTACGAATTCATCAGGGCTAAAGAGTGCAGAGTTACTTAG [AptaMIP-1 oligo]” as the molecule, how does the Kd (trypsin; six carboxy-dT (ester or amide, polymerizable), throughout) read?
Answer: 4.68 µM

Question: How did the Kd (trypsin; four carboxy-dT, evenly spaced, no central linker) turn out when “ATCTACGAATTCATCAGGGCTAAAGAGTGCAGAGTTACTTAG [AptaMIP-2 oligo]” was run?
Answer: 2.33 µM

Question: With “ATCTACGAATTCATCAGGGCTAAAGAGTGCAGAGTTACTTAG [AptaMIP-3 oligo]” as the molecule, how does the Kd (trypsin; three carboxy-dT, both ends and centre) read?
Answer: 9.75 µM

Question: With “ATCTACGAATTCATCAGGGCTAAAGAGTGCAGAGTTACTTAG [AptaMIP-4 oligo]” as the molecule, how does the Kd (trypsin; three carboxy-dT near centre (9 bases free at 3', 14 at 5')) read?
Answer: 9.87 µM

Question: How did the Kd (trypsin; two carboxy-dT, one at each end (positions 1 and 6 of Fig. 1)) turn out when “ATCTACGAATTCATCAGGGCTAAAGAGTGCAGAGTTACTTAG [AptaMIP-5 oligo]” was run?
Answer: 8.95 µM

Question: How did the Kd (trypsin; one carboxy-dT at 3' end) turn out when “ATCTACGAATTCATCAGGGCTAAAGAGTGCAGAGTTACTTAG [AptaMIP-6 oligo]” was run?
Answer: 4.68 µM

Question: How did the Kd (trypsin; one carboxy-dT at 5' end) turn out when “ATCTACGAATTCATCAGGGCTAAAGAGTGCAGAGTTACTTAG [AptaMIP-7 oligo]” was run?
Answer: 4.89 µM

Question: Which Kd (trypsin; one central carboxy-dT) does the source give for “ATCTACGAATTCATCAGGGCTAAAGAGTGCAGAGTTACTTAG [AptaMIP-8 oligo]” here?
Answer: 4.17 µM

B1: AptaMIP-1 oligo (ssDNA)
DNA: ATCTACGAATTCATCAGGGCTAAAGAGTGCAGAGTTACTTAG
modifications: six carboxy-dT (ester or amide, polymerizable), throughout; embedded in imprinted polymer nanoparticle
Question: B1 was tested. Which Kd (lysozyme) did it give?
Answer: 0.00128 µM

B2: AptaMIP-4 oligo (ssDNA)
DNA: ATCTACGAATTCATCAGGGCTAAAGAGTGCAGAGTTACTTAG
modifications: three carboxy-dT near centre (9 bases free at 3', 14 at 5'); embedded in imprinted polymer nanoparticle
Question: How did the Kd (lysozyme) turn out when B2 was run?
Answer: 0.0427 µM

B3: AptaMIP-3 oligo (ssDNA)
DNA: ATCTACGAATTCATCAGGGCTAAAGAGTGCAGAGTTACTTAG
modifications: three carboxy-dT, both ends and centre; embedded in imprinted polymer nanoparticle
Question: How did the Kd (lysozyme) turn out when B3 was run?
Answer: 0.0012 µM
